This experiment concerns the target androgen receptor ligand binding domain (AR LBD) bound with DHT (chimp construct; LBD sequence stated identical to human). In words: X-ray cocrystal structure; surface area buried from both molecules on binding.
androgen receptor ligand binding domain (AR LBD) bound with DHT (chimp construct; LBD sequence stated identical to human), sequence (P10275 whole entry, the tested form may be a part): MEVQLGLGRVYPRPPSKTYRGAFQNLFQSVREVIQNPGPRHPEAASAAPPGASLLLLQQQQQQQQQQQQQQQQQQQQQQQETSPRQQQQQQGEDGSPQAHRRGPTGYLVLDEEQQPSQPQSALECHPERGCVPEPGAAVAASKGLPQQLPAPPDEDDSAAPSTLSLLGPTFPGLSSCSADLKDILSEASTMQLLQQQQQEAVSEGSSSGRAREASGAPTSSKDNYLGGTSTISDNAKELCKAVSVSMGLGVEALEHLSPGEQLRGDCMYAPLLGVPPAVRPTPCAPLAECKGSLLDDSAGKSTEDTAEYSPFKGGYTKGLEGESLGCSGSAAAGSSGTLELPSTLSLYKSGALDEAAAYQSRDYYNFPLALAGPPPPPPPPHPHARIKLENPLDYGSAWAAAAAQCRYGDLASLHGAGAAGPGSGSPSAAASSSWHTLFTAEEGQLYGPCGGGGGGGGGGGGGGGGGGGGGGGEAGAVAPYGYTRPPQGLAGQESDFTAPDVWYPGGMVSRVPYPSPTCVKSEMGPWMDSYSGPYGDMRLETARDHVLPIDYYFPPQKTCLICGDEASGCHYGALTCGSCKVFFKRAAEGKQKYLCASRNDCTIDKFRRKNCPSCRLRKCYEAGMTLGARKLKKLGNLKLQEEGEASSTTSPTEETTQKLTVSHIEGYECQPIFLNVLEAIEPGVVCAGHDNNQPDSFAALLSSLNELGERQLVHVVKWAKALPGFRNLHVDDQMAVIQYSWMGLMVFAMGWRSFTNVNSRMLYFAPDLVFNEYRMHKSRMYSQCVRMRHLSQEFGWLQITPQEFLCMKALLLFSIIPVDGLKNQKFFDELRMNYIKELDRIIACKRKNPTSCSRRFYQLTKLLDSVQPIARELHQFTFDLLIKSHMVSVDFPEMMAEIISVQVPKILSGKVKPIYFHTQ
Regarding SRWQALFDDGTDTSR [coactivator-related peptide CRP-2], the buried surface area is 963 Å^2.

With SSKFAALWDPPKLSR [coactivator-related peptide CRP-4], the buried surface area stood at 930 Å^2.

SRWAEVWDDNSKVSR [coactivator-related peptide CRP-7] gave a buried surface area of 882 Å^2.

Molecule SSRGLLWDLLTKDSR [coactivator-related peptide CRP-1] registered a buried surface area of 987 A^2.

Molecule SSNTPRFKEYFMQSR [coactivator-related peptide CRP-6] registered a buried surface area of 1230 Å^2.

As for SRFADFFRNEGLSGSR [coactivator-related peptide CRP-5], the buried surface area was determined as 920 Å^2.

In the case of SSRFESLFAGEKESR [coactivator-related peptide CRP-3], the buried surface area amounted to 1020 A^2.

The record behind these values is US20050202440A1.
